Assay results taken from article PMC6900781.

Assays:
[1] = biological target: CAL1-GFP-LacI [Drosophila melanogaster]; test: LacO-tethering recruitment assay (HA immunofluorescence intensity at LacO); conditions: parent: 0.18; read off a plot
[2] = biological target: GFP-LacI-dCENP-C [Drosophila melanogaster]; test: as above; conditions: parent: 1.2; read off a plot

| Substance | response (normalized to GFP) [1] | response (normalized to GFP) [2] |
| --- | --- | --- |
| HA-dCENP-C mutant L1357E; L1406E [Drosophila melanogaster] / CAL1-GFP-LacI [Drosophila melanogaster] chain 1 L1357E, chain 1 L1406E | 0.07 | – |
| HA-dCENP-C mutant L1357E; L1406E [Drosophila melanogaster] / GFP-LacI-dCENP-C [Drosophila melanogaster] chain 1 L1357E, chain 1 L1406E | – | 0.15 |
